Assay [1] concerns colon cancer cell line CT26. The experiment in a line: Anti-tumor effect of recombinant murine PDS5A protein in tumor-bearing mouse, therapeutic model, CT26. In kind it is in vivo, Balb/c mice. On the procedure: (§1) The same experiment was carried out also for a colon cancer model. The colon cancer cell line CT26 was subcutaneously transplanted to Balb/c mice (7 weeks old, male, purchased from Japan SLC) in an amount of 1×10^6 cells. When the tumor volume reached an average of 50 to 100 mm^3 (typically 7 days after the inoculation of the tumor), the mice were randomly divided into groups each of which contains 10 individuals, and subjected to evaluation of the anti-tumor effect of the recombinant murine PDS5A protein (therapeutic model). With 100 μg (0.5 ml) of the recombinant murine PDS5A protein purified as described above, 50 μg of poly I:C was mixed to prepare a therapeutic agent for cancer, and this therapeutic agent was subcutaneously administered to the tumor-bearing mice a total of 3 times at intervals of 1 week. […] On the other hand, in the negative control group to which PBS(−) was administered and the group to which poly I:C alone (50 μg) was administered, the mean tumor volumes on Day 24 after the administration were 1449 mm^3 and 835 mm^3, respectively.

The test system of assay [2] is colon cancer cell line CT26. The experiment in a line: Anti-tumor effect of recombinant murine PDS5A protein, prophylactic model, CT26. The format is in vivo, Balb/c mice. On the procedure: (§2) Further, a therapeutic agent for cancer wherein 100 μg (0.5 ml) of the recombinant murine PDS5A protein and 50 μg poly I:C were mixed was prepared, and subcutaneously administered to Balb/c mice a total of 3 times at intervals of 1 week, followed by transplantation of 1×10^6 CT26 cells to the mice and evaluation of the anti-tumor effect (prophylactic model). Ten individuals were included in each group, and, as controls for comparison, a negative control group to which PBS(−) was administered and a group to which poly I:C alone (50 μg) was administered were provided. […] On the other hand, in the negative control group to which PBS(−) was administered and the group to which poly I:C alone (50 μg) was administered, the mean tumor volumes on Day 31 after the administration were 1781 mm^3 and 1675 mm^3, respectively.

In assay [3] the test system is murine neuroblastoma cell line N2a. Nature of the assay: Anti-tumor effect of recombinant murine PDS5A protein, prophylactic model, N2a. The format is in vivo, A/J mice. On the procedure: as §2, with “A/J” for “Balb/c”, “N2a” for “CT26”, “40” for “31”, “1989” for “1781”, “1843” for “1675”
Assay [4] shares this test system. Nature of the assay: Anti-tumor effect of recombinant murine PDS5A protein in tumor-bearing mouse, therapeutic model, N2a. In kind it is in vivo, A/J mice. On the procedure: as §1, with “murine neuroblastoma” for “same experiment was carried out also for a colon cancer model. The colon cancer”, “N2a” for “CT26”, “A/J” for “Balb/c”, “31” for “24”, “1657” for “1449”, “932” for “835”

Assay [5] has as its system mammary gland tumor. The experiment in a line: Anti-tumor effect of recombinant PDS5A protein in tumor-bearing dog, mammary gland tumor. In kind it is in vivo. As to conditions: 500 μg protein with same amount of Freund's incomplete adjuvant, regional lymph node near tumor, 3 times at 1-week intervals; tumor about 500 mm^3 (dog-derived) or 1000 mm^3 (human-derived) at administration. On the procedure: The anti-tumor effect of the recombinant protein described in Example 5 below in 3 individuals of tumor-bearing patient dogs (3 individuals having a mammary gland tumor) having a tumor mass in the epidermis was evaluated. Before administration, the antibody titer against the recombinant protein in the serum of each patient dog was measured by the method described in Example 5 (3), and, as a result, an antibody titer higher than that of a healthy dog was detected.
With 500 μg (2.5 ml) each of the recombinant PDS5A proteins (dog-derived and human-derived) purified as described above, the same amount of Freund's incomplete adjuvant (manufactured by Wako Pure Chemical Industries, Ltd.) was mixed to prepare 2 kinds of therapeutic agents for cancer, each of which was administered to a regional lymph node in the vicinity of the tumor a total of 3 times at 1-week intervals. […] On the other hand, in the negative control group to which PBS(−) was administered, the tumor volume, which had been about 800 mm^3 at the time of administration of PBS, became 1625 mm^3 on Day 21 after the administration.

The mark [6] stands for this setting: Day 31 after the administration, poly I:C alone 50 μg.

Turning to poly I:C [reference compound], the mean tumor volume in assay [1] (Day 24 after the administration, poly I:C alone 50 μg) amounted to 835 mm^3; in assay [2] (setting [6]), 1675 mm^3; in assay [3] (Day 40 after the administration, poly I:C alone 50 μg), 1843 mm^3; in assay [4] (setting [6]), 932 mm^3.

B1: human PDS5A protein (SEQ ID NO:44): full-length human PDS5A (SEQ ID NO:44) expressed in E. coli; given mixed with Freund's incomplete adjuvant (protein, listed as Homo sapiens)
chain: MDFTAQPKPATALCGVVSADGKIAYPPGVKEITDKITTDEMIKRLKMVVKTFMDMDQDSEDEKQQYLPLALHLASEFFLRNPNKDVRLLVACCLADIFRIYAPEAPYTSHDKLKDIFLFITRQLKGLEDTKSPQFNRYFYLLENLAWVKSYNICFELEDCNEIFIQLFRTLFSVINNSHNKKVQMHMLDLMSSIIMEGDGVTQELLDSILINLIPAHKNLNKQSFDLAKVLLKRTVQTIEACIANFFNQVLVLGRSSVSDLSEHVFDLIQELFAIDPHLLLSVMPQLEFKLKSNDGEERLAVVRLLAKLFGSKDSDLATQNRPLWQCFLGRFNDIHVPVRLESVKFASHCLMNHPDLAKDLTEYLKVRSHDPEEAIRHDVIVTIITAAKRDLALVNDQLLGFVRERTLDKRWRVRKEAMMGLAQLYKKYCLHGEAGKEAAEKVSWIKDKLLHIYYQNSIDDKLLVEKIFAQYLVPHNLETEERMKCLYYLYASLDPNAVKALNEMWKCQNMLRSHVRELLDLHKQPTSEANCSAMFGKLMTIAKNLPDPGKAQDFVKKFNQVLGDDEKLRSQLELLISPTCSCKQADICVREIARKLANPKQPTNPFLEMVKFLLERIAPVHIDSEAISALVKLMNKSIEGTADDEEEGVSPDTAIRSGLELLKVLSFTHPTSFHSAETYESLLQCLRMEDDKVAEAAIQIFRNTGHKIETDLPQIRSTLIPILHQKAKRGTPHQAKQAVHCIHAIFTNKEVQLAQIFEPLSRSLNADVPEQLITPLVSLGHISMLAPDQFASPMKSVVANFIVKDLLMNDRSTGEKNGKLWSPDEEVSPEVLAKVQAIKLLVRWLLGMKNNQSKSANSTLRLLSAMLVSEGDLTEQKRISKSDMSRLRLAAGSAIMKLAQEPCYHEIITPEQFQLCALVINDECYQVRQIFAQKLHKALVKLLLPLEYMAIFALCAKDPVKERRAHARQCLLKNISIRREYIKQNPMATEKLLSLLPEYVVPYMIHLLAHDPDFTRSQDVDQLRDIKECLWFMLEVLMTKNENNSHAFMKKMAENIKLTRDAQSPDESKTNEKLYTVCDVALCVINSKSALCNADSPKDPVLPMKFFTQPEKDFCNDKSYISEETRVLLLTGKPKPAGVLGAVNKPLSATGRKPYVRSTGTETGSNINVNSELNPSTGNRSREQSSEAAETGVSENEENPVRIISVTPVKNIDPVKNKEINSDQATQGNISSDRGKKRTVTAAGAENIQQKTDEKVDESGPPAPSKPRRGRRPKSESQGNATKNDDLNKPINKGRKRAAVGQESPGGLEAGNAKAPKLQDLAKKAAPAERQIDLQR
modifications: mixed with Freund's incomplete adjuvant
On to B1, for which the “day on which complete regression of the tumor was achieved” value in assay [5] worked out at 21 days.

B2: recombinant murine PDS5A protein: full-length murine PDS5A (SEQ ID NO:6) expressed in E. coli, His tag cleaved; given mixed with poly I:C (protein, listed as Mus musculus)
chain: MDFTQPKPATALCGVVSADGKIAYPPGVKEITDKITTDEMIKRLKMVVKTFMDMDQDSEDEKQQYLPLALHLASEFFLRNPNKDVRLLVACCLADIFRIYAPEAPYTSHDKLKDIFLFITRQLKGLEDTKSPQFNRYFYLLENLAWVKSYNICFELEDCNEIFIQLFRTLFSVINNSHNTKVQMHMLDLMSSIIMEGDGVTQELLDSILINLIPAHKNLNKQSFDLAKVLLKRTVQTIEACIANFFNQVLVLGRSSVSDLSEHVFDLIQELFAIDPQLLLSVMPQLEFKLKSNDGEERLAVVRLLAKLFGSKDSDLATQNRPLWQCFLGRFNDIHVPVRLESVKFASHCLMNHPDLAKDLTEYLKVRSHDPEEAIRHDVIVTIITAAKRDLALVNDQLLGFVRERTLDKRWRVRKEAMMGLAQLYKKYCLHGEAGKEAAEKVSWIKDKLLHIYYQNSIDDKLLVEKIFAQYLVPHNLETEERMKCLYYLYASLDPNAVKALNEMWKCQNMLRSHVRELLDLHKQPTSEANCSAMFGKLMTIAKNLPDPGKAQDFVKKFNQVLGDDEKLRSQLELLISPTCSCKQADVCVREIARKLANPKQPTNPFLEMVKFLLERIAPVHIDSEAISALVKLMNKSIEGTADDEEEGVSPDSAIRSGLELLKVLSFTHPTSFHSAETYESLLQCLRMEDDKVAEAAIQIFRNTGHKIETDLPQIRSTLIPILHQKAKRGTPHQAKQAVHCIHAIFSNKEVQLAQIFEPLSRSLNADVPEQLITPLVSLGHISMLAPDQFASPMKSVVANFIVKDLLMNDRSTGEKNGKLWSPDEEVSPEVLAKVQAIKLLVRWLLGMKNNQSKSANSTLRLLSAMLVSEGDLTEQKRISKSDMSRLRLAAGSAIMKLAQEPCYHEIITPEQFQLCALVINDECYQVRQIFAQKLHKALVKLLLPLEYMAIFALCAKDPVKERRAHARQCLLKNISIRREYIKQNPMATEKLLSLLPEYVVPYMIHLLAHDPDFTRSQDVDQLRDIKECLWFMLEVLMTKNENNSHAFMKKMAENIKLTRDAQSPDESKTNEKLYTVCDVALCVINSKSALCNADSPKDPVLPMKFFTQPEKDFCNDKSYISEETRVLLLTGKPKPTGVLGTVNKPLSATGRKPYVRSAGTETGSNINANSELSPSAGSRSREQSSEASETGVSENEENPVRIISVTPVKNIDTVKNKEINSDQSTQGNISSDRGKKRIVTAAGAENIQKPDEKVDESGPPAPSKPRRGRRPKSESQGNATKNDDLNKPVSKGRKRAAGSQESLEAGNAKAPKLQDGAKKAVPAERQIDLQR
modifications: mixed with poly I:C
In the case of B2, the tumor outcome in assay [1] (Day 24, 100 μg protein mixed with 50 μg poly I:C, subcutaneous, 3 times at intervals of 1 week, PBS(−) group 1449 mm^3) is “complete regression of the tumor”; in assay [2] (Day 31, 100 μg protein mixed with 50 μg poly I:C, subcutaneous, 3 times at intervals of 1 week before CT26 transplantation, PBS(−) group 1781 mm^3), “no development of a tumor”; in assay [3] (Day 40, 100 μg protein mixed with 50 μg poly I:C, subcutaneous, 3 times at intervals of 1 week before N2a transplantation, PBS(−) group 1989 mm^3), “no development of a tumor”; in assay [4] (Day 31, 100 μg protein mixed with 50 μg poly I:C, subcutaneous, 3 times at intervals of 1 week, PBS(−) group 1657 mm^3) it was “complete regression of the tumor”.

Source of the values: patent US10251942B2, “Immunity-inducing agent” (TORAY INDUSTRIES, INC., priority 2009, dated 2019).
